Measurements reported in patent US20040086512A1 (THOMAS JEFFERSON UNIVERSITY, published 2004).

Target: T1, GST-Vif fusion protein (HIV-1 (HIV-1NL4-3), UniProt P12504 1-192)
T1 construct: range 1-192; Expressed from pGEX in BL21 E. coli, held on glutathione-agarose beads or coated on ELISA plates; also called purified HIV-1 Vif protein; not shown: glutathione-S-transferase encoded by the pGEX vector
Test: phage peptide display, phage ELISA on coated GST-Vif

T1 sequence (P12504 whole entry, the tested form may be a part): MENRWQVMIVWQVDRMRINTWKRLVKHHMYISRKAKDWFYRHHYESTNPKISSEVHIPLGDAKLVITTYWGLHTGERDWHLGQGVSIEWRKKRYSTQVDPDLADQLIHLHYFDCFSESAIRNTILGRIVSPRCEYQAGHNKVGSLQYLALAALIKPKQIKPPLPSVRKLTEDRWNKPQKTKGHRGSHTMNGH

Binder	binding result
SPYPSWSTPAGR (12-mer with PXP motif from the Ph.D.-12 library; also called ID; NO: 20) [VMI16 peptide SPYPSWSTPAGR]	binds
SEPHLPFPVLPH (12-mer with PXP motif from the Ph.D.-12 library; also called ID; NO: 12) [VMI8 peptide SEPHLPFPVLPH]	binds
LPLPAPSFHRTT (12-mer with PXP motif; also called ID; NO: 13) [VMI9 peptide LPLPAPSFHRTT]	binds
WHSQRLSPVPPA (12-mer with PXP motif from the Ph.D.-12 library; also called ID; NO: 10) [VMI6 peptide WHSQRLSPVPPA]	binds
GPPPHHRDYHGP (12-mer with PXP motif from the Ph.D.-12 library; also called ID; NO: 17) [VMI13 peptide GPPPHHRDYHGP]	binds
SNFASITTPRPH (12-mer with PXP motif from the Ph.D.-12 library; also called ID; NO: 5) [VMI1 peptide SNFASITTPRPH]	binds
SVSVGMKPSPRP (12-mer with PXP motif; also called ID; NO: 9) [VMI5 peptide SVSVGMKPSPRP]	binds
TMTPPPTSVRGT (12-mer with PXP motif from the Ph.D.-12 library; also called ID; NO: 15) [VMI11 peptide TMTPPPTSVRGT]	binds
SLHWPVSHPPPP (12-mer with PXP motif from the Ph.D.-12 library; also called ID; NO: 8) [VMI4 peptide SLHWPVSHPPPP]	binds
YPAPIKVLLPNS (12-mer with PXP motif from the Ph.D.-12 library; also called ID; NO: 18) [VMI14 peptide YPAPIKVLLPNS]	binds
TPLPTIRGDTGT (12-mer with PXP motif from the Ph.D.-12 library; also called ID; NO: 16) [VMI12 peptide TPLPTIRGDTGT]	binds
WPTNPTTVPVPS (12-mer with PXP motif from the Ph.D.-12 library; also called ID; NO: 6) [VMI2 peptide WPTNPTTVPVPS]	binds
SNQGGSPLPRSV (12-mer with PXP motif; also called VM17; ID; NO: 11) [VMI7 peptide SNQGGSPLPRSV]	binds
SPYPMALFPLHN (12-mer with PXP motif from the Ph.D.-12 library; also called ID; NO: 19) [VMI15 peptide SPYPMALFPLHN]	binds
YPLPHPMWSMLP (12-mer with PXP motif from the Ph.D.-12 library; also called ID; NO: 14) [VMI10 peptide YPLPHPMWSMLP]	binds
